This is an account of results in patent publication US20030236190A1 (published 2003).

Non-standard residues stand in square brackets, D forms with d. No end group written: not given here. *: point of attachment. Biotin = O=C1N[C@H]2[C@H](CS[C@H]2CCCCC(=O)*)N1; Bpa = N[C@@H](Cc1ccc(C(=O)c2ccccc2)cc1)C(=O)O; Tic = O=C(O)[C@@H]1Cc2ccccc2CN1; Ac6c = NC1(C(=O)O)CCCCC1

B1: S546 (peptide)
peptide: SLEEEWAQVECEV[Bpa]GRGCPSGSLDESFYDWFERQ[Bpa]GK(Biotin)
modifications: not fully specified (bridges); printed as SLEEEWAQVECEV-Bpa-GRGCPSGSLDESFYDWFERQ-Bpa-GK(Biotin); cysteine pairing not given here
B2: S527 (peptide)
peptide: H[Ac6c]CAQE[dW]GSEL[Tic]QCSGSESFYDWFERQL
modifications: not fully specified (bridges); printed as H-Acy-CAQEwGSEL-Tic-QCSGSESFYDWFERQL; cysteine pairing not given here
notes: leading H- read as His; it may mean a free N-terminus

The test has as its target human insulin receptor (HIR) (human, UniProt P06213 28-1382, limits assumed). The experiment in a line: 125I-insulin competition, solubilised HIR.
Consider LDEWAWVQCVEYGRGCPSESFYDWFERQLG [S483], for which the affinity, expressed as Kd, was 52 nM. Under SLEEEWAQIECEVWGRGCSGSLDESFYDWFERQL [S561] stands 0.015 nM; under SLEEEWAQVECEVYGRGCPS [S547], 49 nM; under SLEEEWAQVECEVWGRGCPS [S548], 4.1 nM. SLEEEWAQVECEVYGRGCPPGLLDESFYHWFDRQLR [S553] came in with a Kd of 0.0073 nM. Turning to SIEEEWAQIKCDVWGRGCPPGLLDESFYHWFDRQLR [S520], the Kd was found to be 0.02 nM. The molecule B1 gave a Kd of 26 nM. To LDQEWAWVQCEVYGRGCPSESFYDWFERQLG [S471] belongs 0.67 nM; to ADQEWAWVQCEVYGRGCPSESFYDWFERQLG [S494], 17 nM. Under B2 stands 2.4 nM. The molecule SLEEEWAQVECEVYGRGCPSGGSGGSGLLDESFYHWFDRQLR [S510] returned a Kd of 0.062 nM. This Kd is about 39-fold lower than that of the molecule before. To WLDQEWAWVQCEVYGRGCPSGGSGGSSQAGSAFYAWFDQVLRTV [S512] belongs 28 nM; to SLEEEWAWVECEVYGRGCPSGSLDESFYDWFERQL [S532], 0.037 nM. SLEEEWAQIQCEVWGRCSESFYDWFERQL [S564] yielded a Kd of 0.013 nM. This Kd is about 2.8-fold lower than that of the molecule before. Under SLEEEWAQIECEVWGRGCSESFYDWFERQL [S559] stands 0.021 nM; under SIEEEWAQIKCDVWGRGCSESFYDWFERQL [S556], 0.032 nM. Under SLEEEWAQIQCEVWGR[dN][dC]SESFYDWFERQL (cysteine pairing not given here) [S563] stands 0.014 nM. Under LDQEWAWVQCVYGRGCPSESFYDWFERQLG [S486] stands 57 nM; under LDQEWAQVQCEVYGRGCPSESFYDWFERQL [S533], 0.067 nM. Molecule LDQEWAAVQCEVYGRGCPSESFYDWFERQL [S499] came in with a Kd of 0.62 nM.

On to LDQEWAWVQCEAYGRGCPSESFYDWFERQL [S503], for which the Kd worked out at 2.1 nM. This Kd is about 3.4-fold higher than that of the molecule before.

Take LAQEWAWVQCEVYGRGCPSESFYDWFERQL [S495]: the Kd is 2.6 nM.

As for LDQEWAWVQCEVAGRGCPSESFYDWFERQL [S504], the Kd is 13 nM. To LEEEWAQVECEVYGRGCPSESFYDWFERQL [S536] belongs 0.083 nM; to LDQEAAWVQCEVYGRGCPSESFYDWFERQL [S498], 56 nM. Under LDQEWAWVQCAVYGRGCPSESFYDWFERQL [S502] stands 3 nM. Under LDQAWAWVQCEVYGRGCPSESFYDWFERQL [S497] stands 2.5 nM.

In the case of SLEEEWAQVECEVYGRGCPSFYDWFERQL [S531], the Kd stood at 0.075 nM. To SLEEEWAQIEEVWGRGPSESFYDWFERQLG (label printed as 3569; also called 3569) [S569] belongs 0.15 nM. GSLDESFYDWFERQLGK (N-terminal acetyl; POX (not explained) between G16 and K17) [S550] returned a Kd of 40 nM. Under SLEEEWAQIECEVYGRGCPSESFYDWFERQLG [S554] stands 0.0064 nM; under SLEEEWAQIEAEVWGRGAPSESFYDWFERQLG [S574], 0.0092 nM. Under SLEEEWAQVECEVYGRGCPSESFYDWF[dV]RQLG (cysteine pairing not given here) [S555] stands 0.057 nM. To HLCVLEELFWGASLFGYCSGGSLDESFYDWFERQL [S521] belongs 27 nM.

For the molecule Ac-SIEEEWAQIKCDVWGRGPSESFYDWFERQLG [S568], binding was put at a Kd of 0.0043 nM.

Take HHHHHHKLDQEWAWVQCEVYGRGCPSESFYDWFERQLG [S481]: the Kd came out at 13 nM. WLDQEWAWVQCEVYGRGCPSGGSGGSGRVDWLQRNANFYDWFVAELG [S511]: binding was characterised by a dissociation constant (Kd) of 3.8 nM. To SLEEEWAQIECEVYGRGCPSESFYDWFERQL [S557] belongs 0.02 nM; to SLEEEWAQVECEVYGRGCPSESFYDWFERQL [S530], 0.008 nM; to SLEEEWAQIQCEVWGRGCPSESFYDWFERQL [S606], 0.004 nM. To SLEEEWAWVQCEVYGRGCPSESFYDWFERQL [S534] belongs 0.01 nM.

In turn, SIEEEWAQIKCDVWGRGCPSESFYDWFERQL [S517] had a Kd of 0.6 nM. To SLEEEWAQIECEVWGRGCPSESFYDWFERQL [S558] belongs 0.019 nM. For the molecule RLEEEWAWVQCEVYGRGCPSGSLDESFYDWFERQLG [S518], the Kd was found to be 0.16 nM. Compared with the last molecule, the Kd is about 8.4-fold higher. To SLEEEWAQVECEVYGRGCPSGSLDESFYH[dW]FERQLG (cysteine pairing not given here) [S542] belongs 0.027 nM; to SLEEEWAQVEAEVYGRGAPSGSLDESFYDWFERQLG [S551], 0.072 nM. Under SLELEWAQVECEVYGRGCPSGSLDESFYDWFERQLG [S539] stands 0.098 nM; under SLEHEWAQVECEVYGRGCPSGSLDESFYDWFERQLG [S537], 0.044 nM.

As to SLEEEWAQVKCEVYGRGCPSGSLDESFYDWFERQLG [S540], the Kd worked out at 0.013 nM. SLEQEWAQVECEVYGRGCPSGSLDESFYDWFERQLG [S538] came in with a Kd of 0.038 nM. To SLEEEWAQVECEVWGRGCPSGSLDESFYDWFERQLG [S541] belongs 0.0078 nM; to SIEEEWAQIKCDVWGRCSESFYDWFERQL [S562], 0.018 nM; to Ac-SIEEEWAQIKCDVWGRGSESFYDWFERQL [S600], 0.0076 nM.

Molecule SLEEEWAQVECEVYGRGCSGSLDESFYDWFERQLG [S549] yielded a Kd of 0.013 nM. For the molecule WLDQEWAWVQCEVYGRGCPSDSDWAGYEWFEEQLD [S523], the affinity, expressed as Kd, was 4.3 nM.

Usually Kd stands for the free concentration of one partner at which half of the binding sites on the other are occupied at equilibrium, for simple one-to-one binding.
